This note sets out measurements from patent US20050277762A1 (published 2005).

In test [1] the target is T1, ubiquitin aldehyde (Ubal) (UniProt P0CG47 1-76, C-terminal residue as aldehyde). As to the kind of experiment: competition: lysate pre-treated with Ubal, then [^125I]-UbVS labeling.
The target in test [2] is T1, ubiquitin aldehyde (Ubal). Description: competition: wild type yeast lysate pre-incubated with increasing Ubal, then [^125I]-UbVS labeling. The source says: Reactions were quenched with sample buffer, resolved by 10% SDS-PAGE and analyzed by autoradiography. Identity of bands was assigned based on the absence of a band corresponding to the molecular weight of a DUB deleted in that strain.

B1: USP14 (TGT) (enzyme, mouse (EL-4 cell lysate), UniProt Q9JMA1 1-493, looked up)
chain: MPLYSVTVKWGKEKFEGVELNTDEPPMVFKAQLFALTGVQPARQKVMVKGGTLKDDDWGNIKMKNGMTVLMMGSADALPEEPSAKTVFVEDMTEEQLATAMELPCGLTNLGNTCYMNATVQCIRSVPELKDALKRYAGALRASGEMASAQYITAALRDLFDSMDKTSSSIPPIILLQFLHMAFPQFAEKGEQGQYLQQDANECWIQMMRVLQQKLEAIEDDSGRETDSSSAPAVTPSKKKSLIDQYFGVEFETTMKCTESEEEEVTKGKENQLQLSCFINQEVKYLFTGLKLRLQEEITKQSPTLQRNALYIKSSKISRLPAYLTIQMVRFFYKEKESVNAKVLKDVKFPLMLDVYELCTPELQEKMVSFRSKFKDLEDKKVNQQPNANDKNSPPKEIKYEPFSFADDIGSNNCGYYDLQAVLTHQGRSSSSGHYVSWVRRKQDEWIKFDDDKVSIVTPEDILRLSGGGDWHIAYVLLYGPRRVEIMEEESEQ
notes: also called p58
Turning to B1, in test [1], the binding result is on record as “binds”.

B2: Ubp6 (enzyme, S. cerevisiae, UniProt P43593 1-499, looked up)
chain: MSGETFEFNIRHSGKVYPITLSTDATSADLKSKAEELTQVPSARQKYMVKGGLSGEESIKIYPLIKPGSTVMLLGTPDANLISKPAKKNNFIEDLAPEQQVQQFAQLPVGFKNMGNTCYLNATLQALYRVNDLRDMILNYNPSQGVSNSGAQDEEIHKQIVIEMKRCFENLQNKSFKSVLPIVLLNTLRKCYPQFAERDSQGGFYKQQDAEELFTQLFHSMSIVFGDKFSEDFRIQFKTTIKDTANDNDITVKENESDSKLQCHISGTTNFMRNGLLEGLNEKIEKRSDLTGANSIYSVEKKISRLPKFLTVQYVRFFWKRSTNKKSKILRKVVFPFQLDVADMLTPEYAAEKVKVRDELRKVEKEKNEKEREIKRRKFDPSSSENVMTPREQYETQVALNESEKDQWLEEYKKHFPPNLEKGENPSCVYNLIGVITHQGANSESGHYQAFIRDELDENKWYKFNDDKVSVVEKEKIESLAGGGESDSALILMYKGFGL
notes: also called Ubp6p
For the molecule B2, the binding result in test [2] is “binds”.

B3: Ubp1 (enzyme, S. cerevisiae, UniProt P25037 1-809, looked up)
chain: MDLFIESKINSLLQFLFGSRQDFLRNFKTWSNNNNNLSIYLLIFGIVVFFYKKPDHLNYIVESVSEMTTNFRNNNSLSRWLPRSKFTHLDEEILKRGGFIAGLVNDGNTCFMNSVLQSLASSRELMEFLDNNVIRTYEEIEQNEHNEEGNGQESAQDEATHKKNTRKGGKVYGKHKKKLNRKSSSKEDEEKSQEPDITFSVALRDLLSALNAKYYRDKPYFKTNSLLKAMSKSPRKNILLGYDQEDAQEFFQNILAELESNVKSLNTEKLDTTPVAKSELPDDALVGQLNLGEVGTVYIPTEQIDPNSILHDKSIQNFTPFKLMTPLDGITAERIGCLQCGENGGIRYSVFSGLSLNLPNENIGSTLKLSQLLSDWSKPEIIEGVECNRCALTAAHSHLFGQLKEFEKKPEGSIPEKLINAVKDRVHQIEEVLAKPVIDDEDYKKLHTANMVRKCSKSKQILISRPPPLLSIHINRSVFDPRTYMIRKNNSKVLFKSRLNLAPWCCDINEINLDARLPMSKKEKAAQQDSSEDENIGGEYYTKLHERFEQEFEDSEEEKEYDDAEGNYASHYNHTKDISNYDPLNGEVDGVTSDDEDEYIEETDALGNTIKKRIIEHSDVENENVKDNEELQEIDNVSLDEPKINVEDQLETSSDEEDVIPAPPINYARSFSTVPATPLTYSLRSVIVHYGTHNYGHYIAFRKYRGCWWRISDETVYVVDEAEVLSTPGVFMLFYEYDFDEETGKMKDDLEAIQSNNEEDDEKEQEQKGVQEPKESQEQGEGEEQEEGQEQMKFERTEDHRDISGKDVN
notes: also called Ubp1p
Take B3: the binding result in test [2] is “binds”.

B4: Yuh1 (enzyme, S. cerevisiae, UniProt P35127 1-236, looked up)
chain: MSGENRAVVPIESNPEVFTNFAHKLGLKNEWAYFDIYSLTEPELLAFLPRPVKAIVLLFPINEDRKSSTSQQITSSYDVIWFKQSVKNACGLYAILHSLSNNQSLLEPGSDLDNFLKSQSDTSSSKNRFDDVTTDQFVLNVIKENVQTFSTGQSEAPEATADTNLHYITYVEENGGIFELDGRNLSGPLYLGKSDPTATDLIEQELVRVRVASYMENANEEDVLNFAMLGLGPNWE
notes: also called Yuh1p
B4: in test [2], the binding result is “binds”.

B5: Ubp2 (enzyme, S. cerevisiae, UniProt Q01476 1-1272, looked up)
chain: MPNEDNELQKAIENHHNQLLNQDKENADRNGSVIEDLPLYGTSINQQSTPGDVDDGKHLLYPDIATNLPLKTSDRLLDDILCDTIFLNSTDPKVMQKGLQSRGILKESMLSYSTFRSSIRPNCLGSLTDQVVFQTKSEYDSISCPKYNKIHVFQAVIFNPSLAEQQISTFDDIVKIPIYHLKVSVKVRQELERLKKHVGVTQFHSLDHLHEYDRVDLSTFDSSDPNLLDYGIYVSDDTNKLILIEIFKPEFNSPEEHESFTADAIKKRYNAMCVKNESLDKSETPSQVDCFYTLFKIFKGPLTRKSKAEPTKTIDSGNLALNTHLNPEWLTSKYGFQASSEIDEETNEIFTEYVPPDMVDYVNDLETRKIRESFVRKCLQLIFWGQLSTSLLAPNSPLKNTKSVKGMSSLQTSFSTLPWFHLLGESRARILLNSNEQTHSPLDAEPHFINLSVSHYYTDRDIIRNYESLSSLDPENIGLYFDALTYIANRKGAYQLIAYCGKQDIIGQEALENALLMFKINPKECNISELNEATLLSIYKYETSNKSQVTSNHLTNLKNALRLLAKYTKSDKLKFYVDHEPYRALSQAYDTLSIDESVDEDIIKTAYSVKINDSPGLKLDCDRALYTIAISKRSLDLFNFLTEECPQFSNYYGPEKLDYQEALKLLQVNENASDETILKIFKQKWFDENVYEPDQFLILRAALTKISIERNSTLITNFLLTGTIDPNSLPPENWPTGINNIGNTCYLNSLLQYYFSIAPLRRYVLEYQKTVENFNDHLSNSGHIRRIGGREISRGEVERSIQFIYQLRNLFYAMVHTRERCVTPSKELAYLAFAPSNVEVEFEVEGNKVVDQTGVLSDSKKETTDDAFTTKIKDTSLIDLEMEDGLNGDVGTDANRKKNESNDAEVSENEDTTGLTSPTRVAKISSDQLENALEMGRQQDVTECIGNVLFQIESGSEPIRYDEDNEQYDLVKQLFYGTTKQSIVPLSATNKVRTKVERFLSLLINIGDHPKDIYDAFDSYFKDEYLTMEEYGDVIRTVAVTTFPTILQVQIQRVYYDRERLMPFKSIEPLPFKEVIYMDRYADTENPLLLAKKKETEEMKQKLKVMKNRQRELLSRDDSGLTRKDAFLESIKLLESDTIKKTPLKIEAANDVIKTLRNNVQNIDNELMKLYNDINSLEEKISHQFDDFKEYGYSLFSVFIHRGEASYGHYWIYIKDRNRNGIWRKYNDETISEVQEEEVFNFNEGNTATPYFLVYVKQGQEGDIEPLKRILK
notes: also called Ubp2p
As to B5, the binding result in test [2] was “binds”.

B6: Ubp15 (enzyme, S. cerevisiae, UniProt P50101 1-1230, looked up)
chain: MSSEDELGSIGTVFPGSPIDKSIGSILPQFDEEVETLLEDSFTWNIPDWNELTNPKYNSPRFRIGDFEWDILLFPQGNHNKGVAVYLEPHPEEKLDETTGEMVPVDPDWYCCAQFAIGISRPGNGDTINLINKSHHRFNALDTDWGFANLIDLNNLKHPSKGRPLSFLNEGTLNITAYVRILKDPTGVLWHNFLNYDSKKVTGYVGFRNQGATCYLNSLLQSYFFTKYFRKLVYEIPTEHESPNNSVPLALQRAFYQLQVSDIPLDTLELTRSFGWDTAESFTQHDVQELNRILMDRLENNMKGTPVEGKLNEIFVGKMKSYIKCINVDYESARVEDFWDLQLNVKNFKNLQESFDNYIEMELMNGENQYAAQDYGLQDAQKGVIFESFPPVLHLQLKRFEYDFNYDQMVKVNDKYEFPETIDLSPFVDKDVLKKTLDSENKDKNPYVYNLHGVLVHSGDISTGHYYTLIKPGVEDQWYRFDDERVWRVTKKQVFQENFGCDRLPDEKVRTMTRGEYQNYIIQRHTSAYMLVYIRQEQEEDLLRPVLESDVPKHVITRVREEIKERETKEKEIREAHLYVTLRLHSIKEFIHYEGFDYFAHDGFRLFAEELNDSGLQQINLKVLRTTKLSDIFASIKETMNIPQERDVKYWKMDYRRNSTLRLTQPINFESVNITLQEALKKEKKRTMQTQYGEEGVASTEEDDKALLETVSFLDLFIEEPYLELQFLNKLKEASLISKAQLDDELISTIRTNLPELTKGGIEPVFATDNKSNLLFVKSYDPHTQKLLGFGHFAVNQLQQLSDISAIIEDSISSNEKLTFYEEVQPGTINEIYMKETIYDADIDTGDIVSFEVPGAVLPDTFPVYATIKDFYSYLRYRVKLKFSKFDGSSEEYGVSNEIPESFEFWISAYAPYDDLARMVSKYAHVKPEYLKIIALYSNGRFVLKSTSLLNDYLLKDFNCDQIPPFAFEVLSVPLKELERLRPIKLYWLKNSYIHYQCFEFEVANDYTESQFLEKVQHKIGFTDEEKENILLWTNTNFQFQGLLSDQNTFKDVSKHSLLFGRILPEESKLFKELNRLENVQTSSLEDFMDDENATDRPMDDEQDLGMAIEHSEDMKGRIVVVQQYFKDLENRHGISFLFNLIPDETFPKTKDRLHAKFGLGQKEFSKIKLSIGYSTEEGTVFRSLQGFSDEELDKVILYDIMSNLDYIYMDHPDRLRSHSSYDRPMIIKN
notes: also called Ubp15p
In the case of B6, the binding result in test [2] is “binds”.
